Test results reported in the DeepSol protein solubility set.

test: soluble on expression in E. coli; label from the status in PepcDB or PDB records

Sequence	soluble on expression in E. coli
SDLPDSASRVFCGRILSMVNTDDVNAIILAQKNMLDRFEKTNEMLLNFNNLSSARLQQMSERFLHHTRTLVEMKRDLDSIFRRIRTLKGKLARQHPEAFSHIPEASFLEEEDEDPIPPSTTTTIATSEQSTGSCDTSPDTVSPSLSPGFEDLSHVQAGSPAINGRSQTDDEEMTGE	soluble
SDNISLEYFEEAVCYMLQHPQVKGPGIGLLGISLGADICLSMASFLKNVSATVSINGSGISGNTAINYKHSSIPPLGYDLRRIKVAFSGLVDIVDIRNALVGGYKNPSMIPIEKAQGPILLIVGQDDHNWRSELYAQTVSERLQAHGKEKPQIICYPGTGHYIEPPYFPLCPASLHRLLNKHVIWGGEPRAHSKAQEDAWKQILAFFCKHLGGTQKTAVPKL	soluble
SDWKEVLRRRLATPNTCPNKKKSEQELKDEEMDLFTKYYSEWKGGRKNTNEFYKTIPRFYYRLPAEDEVLLQKLREESRAVFLQRKSRELLDNEELQNLWFLLDKHQTPPMIGEEAMINYENFLKVGEKAGAKCKQFFTAKVFAKLLHTDSYGRISIMQFFNYVMRKVWLHQTRIGLSLYDVAGQGYLRESDLENYILELIPTLPQLDGLEKSFYSFYVCTAVRKFFFFLDPLRTGKIKIQDILACSFLDDLLELRDEELSKESQETNWFSAPSALRVYGQYLNLDKDHNGMLSKEELSRYGTATMTNVFLDRVFQECLTYDGEMDYKTYLDFVLALENRKEPAALQYIFKLLDIENKGYLNVFSLNYFFRAIQELMKIHGQDPVSFQDVKDEIFDMVKPKDPLKISLQDLINSNQGDTVTTILIDLNGFWTYENREALVANDSENSADLDDT	soluble
SEDEWQCTECKKFNSPSKRYCFRCWALRKDWYSDCSKLTH	soluble
SEDSGKTFSSEEEEANYWKDLAMTYKQRAENTQEELREFQEGSREYEAELETQLQQIETRNRDLLSENNRLRMELETIKEKFEVQHSEGYRQISALEDDLAQTKAIKDQLQKYIRELEQANDDLERAKRATIMSLEDFEQRLNQAIERNAFLESELDEKENLLESVQRLKDEARDLRQELAVQQKQEKPRTPMPSSVEAERTDTAVQATGSVPSTPIAHRGPSSSLNTPGSFRRGLDDSTGGTPLTPAARISALNIVGDLLRKVGALESKLASCRNLVYDQSPNRTGGPASGRSSKNRDGGERRPSSTSVPLGDKGLDTSCRWLSKSTTRSSSSC	soluble
SEEAGSVALEELVEKEKDRFFSGVDYIVISDNLWISQRKPAITYGTRGNSYFMVEVKCRDQDFHSGTFGGILHEPMADLVALLGSLVDSSGHILVPGIYDEVVPLTEEEINTYKAIHLDLEEYRNSSRVEKFLFDTKEEILMHLWRYPSLSIHGIEGAFDEPGTKTVIPGRVIGKFSIRLVPHMNVSAVEKQVTRHLEDVFSKRNSSNKMVVSMTLGLHPWIANIDDTQYLAAKRAIRTVFGTEPDMIRDGSTIPIAKMFQEIVHKSVVLIPLGAVDDGEHSQNEKINRWNYIEGTKLFAAFFLEMAQLH	soluble
SENVPFASKERADIFSMRTLIDFGGIAILHAYQSRISEYIAEKELSAMNVILKSQYDQYRNYQDSLDLIQMKYHDLKHQITALRAESDAEKRKKWIDAMEEEVSAFENMSKTGNQVLDTILAAKIFHCRKNHIQITCVADGKLLDFIHVTDLCSIFGNALDNAIEHVIMIPEAEKRLIHLTVSAKKSFVFIKIENYCEDKIQKNENDLITTTKADRQNHGFGLKSIRTVVEKYNGSVDFGVDQNWFELKILLPRVM	not soluble
SEPIYEEYLANHGTIVKPYYWLSFSLDCSNCPYHIRTGEEARVSLTEFCQIFGFPYGTTFPQTKHLTFYELKTSSGSLVQKGHASSCTGNYIHPESMLFEMNGYLDSAIYNNDSIRHIILYSNNSPCNEANHCCISKMYNFLITYPGITLSIYFSQLYHTEMDFPASAWNREALRSLASLWPRVVLSPISGGIWHSVLHSFISGVSGSHVFQPILTGRALADRHNAYEINAITGVKPYFTDVLLQTKRNPNTKAQEALESYPLNNAFPGQFFQMPSGQLQPNLPPDLRAPVVFVLVPLRDLPPMHMGQNPNKPRNIVRHLNMPQMSFQETKDLGRLPTGRSVEIVEITEQFASSKEADEKKKKKGKK	soluble
SESVHPGNHNLDTLSHSQISKEEETFPSHQLYTFQAPWLVYGLAWCNRVNSPYSLALSSFIESCNNKIILVELNDKTEDFQQVVQVDHPYPASKVAFIPDYSGTRPQLLATSGDALRIWEWSNDNLKSKALLSTNPESEYCAPLTSFDWCEVNPATLCTSSVDTTCTIWDVETQQAKTQLIAHDKEVYDVAFQTGTDKIFASAGADASVRCFDLRNLETSTILYEIPDDSTPILRIGWNKKEPNYMAALVMDSSKFLLLDIRVPSLPVAEMEHKLTNHKRHKSVNAIHWAPHSSSHICSAGDDCYTLIWDISAIPRPIEEPILSYQSDREVNNLQWSAADPDWIAIAAGNKMQILRV	soluble
SETILEQQRRYHEEKERLMDVMAKEMLTKKSTLRDQINSDHRTRAMQDRYMEVSGNLRDLYDDKDGLRKEELNAISGPNEFAEFYNRLKQIKEFHRKHPNEICVPMSVEFEELLKARENPSEEAQNLVEFTDEEGYGRYLDLHDCYLKYINLKASEKLDYITYLSIFDQLFDIPKERKNAEYKRYLEMLLEYLQDYTDRVKPLQDQNELFGKIQAEFEKKWENGTFPGWPKETSSALTHAGAHLDLSAFSSWEELASLGLDRLKSALLALGLKCGGTLEERAQRLFSTKGKSLESLDTSLFAKNPKSKGTKRDTERNKDIAFLEAQIYEYVEILGEQRHLTHENVQRKQARTGEEREEEEEEQISESESEDEENEIIYNPKNLPLGWDGKPIPYWLYKLHGLNINYNCEICGNYTYRGPKAFQRHFAEWRHAHGMRCLGIPNTAHFANVTQIEDAVSLWAKLKLQKASERWQPDTEEEYEDSSGNVVNKKTYEDLKRQGLL	soluble
SEVERKIVSLEALYIVYDADGTVAGELLYLLRKWLGKGHCAACDITHGPRKVKPEWTILQKTGWLGVPLFNIHRDEMEPKLRSAVSCALPCVAALVDNGDYVLLLQPEDLESCKGQVSKLQEKIVEALKDFGFQVNESFTSVVTSDLSDTCPSTLDREKEEDDAVVPF	soluble
SFAAIASGNPLQLSVEVPNSNGLQHTIVLSRTKPKLYSHITLFILPNVTFPQDYIATVYFKLSPQEEFKLFGYLSSEKPSAIFKVQIPSSKKDAGDTSDGLGEIDMDVDDGSGAADPFTDTNGSSSNNISELIIGISIEPREQGMMKLEEWKASMNAEAQKNNSLILSRPNLGIIRNITTAGQLAQVYPSLTQELAAKIVQHAYNYLSGFLDAQGNVPIKRFDTWWDKFRNRLANDGTFLDEVTKN	soluble
SGCIGSRTVGNEVIAVDWKGLKDVDQINMDSTSSLHGSSLHRPSTEQTRTDFSWDGINLSMEDTTSILPKLKRNSNAYGIGALAKSSFSGISRSMKDHVTKPTAMGQGRVAHMIEWQGWGKTPAVQPQHSHESVRRDTDAYSDLSDGEKEARFLAGVMEQFAISEATLMAWSSMDGEDMSVNSTQEPLGCNYSDNYQELMDSQDALAQAPMDGWPHSYVSQGMYCLGSSDAWEASDQSLIASPATGSYLGPAFDDSQPSLHEMGPSQPASGYSALEPPPLLGGDTDWAPGVGAVDLARGPAEEEKRPLAPEEGEDAGCQDLESLSPREDPEMSTTLSRKVSDVTSSGVQSFDEEEGEANN	soluble
SGGLLIASAHFGAYVCGTDIDYNTVHGLGKASRKNQKWRGPDENIRANLRQYGLEKFYLDVLVSDASKPSWRKGTYFDAIITDPPYGIRESTRRSGSQKDIPKGIEKCPESHVPVSLSYHLSDMFFDLLNFAAETLVLGGRLVYWLPVYTPEYTEEMVPWHPCLRLISNCEQKLSSHTARRLITMEKVKEFENRDKYSHLLSDHFLPYQGHNSFREKYFSGVTKRIAKEEKCSHE	not soluble
SGHPPLEFSDCYLDSPDFRERLKCYEQELERTNKFIKDVIKDGNALISAMRNYSSAVQKFSQTLQSFQFDFIGDTLTDDEINIAESFKEFAELLNEVENERMMMVHNASDLLIKPLENFRKEQIGFTKERKKKFEKDGERFYSLLDRHLHLSSKKKESQLQEADLQVDKERHNFFESSLDYVYQIQEVQESKKFNIVEPVLAFLHSLFISNSLTVELTQDFLPYKQQLQLSLQNTRNHFSSTREEMEELKKRMKEAPQTCKLPGQPTIEGYLYTQEKCVWGHRGIHWVSISQELLPLVGCEFWAPLLFIDP	soluble
